B1: BMP6, mammalian expressed (glycosylated), recombinant human (ligand)
chain: SASSRRRQQSRNRSTQSQDVARVSSASDYNSSELKTACRKHELYVSFQDLGWQDWIIAPKGYAANYCDGECSFPLNAHMNATNHAIVQTLVHLMNPEYVPKPCCAPTKLNAISVLYFDDNSNVILKKYRNMVVRACGCH
modifications: N-linked glycosylation at Asn454 (prehelix loop)
B2: deglycosylated BMP6 (ligand)
chain: B1 chain
modifications: deglycosylated with PNGase F
B3: ALK3 extracellular domain (ALK3 arm of ALK3-ActRIIB in the cryoEM structure) (domain or fragment)
chain: QNLDSMLHGTGMKSDSDQKKSENGVTLAPEDTLPFLKCYCSGHCPDDAINNTCITNGHCFAIIEEDDQGETTLASGCMKYEGSDFQCKDSPKAQLRRTIECCRTNLCNQYLQPTLPPVVIGPFFDGSIR
B4: ALK3-Fc (homodimeric Fc-fusion of ALK3-ECD) (Fc fusion)
chain: B3 chain
B5: ActRIIB2-Fc (trap containing two ActRIIB ECDs) (Fc fusion)
chain: SGRGEAETRECIYYNANWELERTNQSGLERCEGEQDKRLHCYASWRNSSGTIELVKKGCWLDDFNCYDRQECVATEENPQVYFCCCEGNFCNERFTHLPEAGGPEVTYEPPPTAP

What was measured:
[1] = target: ActRIIB1-Fc (trap with a single ActRIIB ECD) (human); test: SPR
[2] = target: ALK2-ActRIIB-Fc heterodimeric trap (human, UniProt Q04771;Q13705); test: SPR
[3] = target: ALK3-ActRIIB-Fc heterodimeric trap (human, UniProt P36894;Q13705); test: SPR
[4] = target: the molecule itself; test: cryo-EM structure
[5] = target: B1; test: cryo-EM structure
[6] = target: B1; test: SPR

Sequence of ALK2-ActRIIB-Fc heterodimeric trap (Q04771 21-123, one chain of several): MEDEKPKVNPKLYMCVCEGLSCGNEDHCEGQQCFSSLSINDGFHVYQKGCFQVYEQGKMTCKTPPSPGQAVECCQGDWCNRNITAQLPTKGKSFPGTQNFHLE

BMP6, mammalian expressed (glycosylated), recombinant human (from UniProt P22004 375-513) (ligand)
Kd [1]: 0.282 nM

B1
Kd [2]: 0.036 nM
Kd [3]: 0.0517 nM
binding result [4]: binds

B2
Kd [2]: 0.164 nM
Kd [3]: 0.0714 nM

B3
binding result [5]: binds

B4
binding result [6]: binds

B5
Kd [6]: 0.124 nM
